Data published in patent US20110105404A1 (TIANJIN MEDICAL UNIVERSITY, published 2011).

How the values were obtained:
Aβ1-42 peptide [1] = assay: cell-based or functional assay
Aβ1-42 peptide [2] = assay: cell-based or functional assay; remark: listed apart in the source

| Inhibition (%) of Aβ1-42 aggregation and fibril formation, ThT fluorescence, 44.30 µmol/L peptide with 11.07 µmol/L Aβ1-42, 37° C., 24 h (Aβ1-42 peptide [1]) | T1/2, time point at which the ThT fluorescence intensity reaches the half-peak (Aβ1-42 peptide [2]) | Binder |
| --- | --- | --- |
| 24.8% |  | HKQLVFFEED [H101] |
| 14.9% |  | HQKLVFFAED [H103] |
| 27.8% | 96 h | HKQLPFFEED [H102] |
